Measurements published in article PMC7980781.

Target: T1, Purified 6xHis tagged recombinant FLCN, Q8NFG4
T1 chain: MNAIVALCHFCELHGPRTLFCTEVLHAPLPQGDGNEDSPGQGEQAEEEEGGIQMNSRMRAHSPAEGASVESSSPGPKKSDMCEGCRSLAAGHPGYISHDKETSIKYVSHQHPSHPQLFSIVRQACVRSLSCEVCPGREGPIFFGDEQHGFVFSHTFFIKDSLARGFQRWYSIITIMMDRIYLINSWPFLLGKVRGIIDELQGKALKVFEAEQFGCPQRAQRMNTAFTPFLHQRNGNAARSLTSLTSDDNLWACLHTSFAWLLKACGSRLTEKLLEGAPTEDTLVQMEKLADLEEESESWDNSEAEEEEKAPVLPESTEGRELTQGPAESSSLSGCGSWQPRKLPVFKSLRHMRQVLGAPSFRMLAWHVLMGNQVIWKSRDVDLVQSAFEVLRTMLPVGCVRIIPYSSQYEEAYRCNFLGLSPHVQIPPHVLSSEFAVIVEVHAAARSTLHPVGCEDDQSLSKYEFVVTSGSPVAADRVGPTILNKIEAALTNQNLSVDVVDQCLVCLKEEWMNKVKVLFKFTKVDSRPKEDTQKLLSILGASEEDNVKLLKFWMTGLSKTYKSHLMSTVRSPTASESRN
Assay: native gel or EMSA
Conditions: remark: other sources report otherwise

B1: Purified 6xHis tagged recombinant FLCN, Q8NFG4 1-579 (natural protein)
chain: MNAIVALCHFCELHGPRTLFCTEVLHAPLPQGDGNEDSPGQGEQAEEEEGGIQMNSRMRAHSPAEGASVESSSPGPKKSDMCEGCRSLAAGHPGYISHDKETSIKYVSHQHPSHPQLFSIVRQACVRSLSCEVCPGREGPIFFGDEQHGFVFSHTFFIKDSLARGFQRWYSIITIMMDRIYLINSWPFLLGKVRGIIDELQGKALKVFEAEQFGCPQRAQRMNTAFTPFLHQRNGNAARSLTSLTSDDNLWACLHTSFAWLLKACGSRLTEKLLEGAPTEDTLVQMEKLADLEEESESWDNSEAEEEEKAPVLPESTEGRELTQGPAESSSLSGCGSWQPRKLPVFKSLRHMRQVLGAPSFRMLAWHVLMGNQVIWKSRDVDLVQSAFEVLRTMLPVGCVRIIPYSSQYEEAYRCNFLGLSPHVQIPPHVLSSEFAVIVEVHAAARSTLHPVGCEDDQSLSKYEFVVTSGSPVAADRVGPTILNKIEAALTNQNLSVDVVDQCLVCLKEEWMNKVKVLFKFTKVDSRPKEDTQKLLSILGASEEDNVKLLKFWMTGLSKTYKSHLMSTVRSPTASESRN
- stoichiometry N: 2
